Measured values as given in patent US20190382483A1.
pKd: −log10 of the molar value.

Experiments:
[1] = target: hSIRPa-His recombinant protein (Sino Biologicals, reference 11612-H08H) (human) (UniProt P78324); assay: Biacore (SPR)
[2] = target: Recombinant hSIRPg-His (Sino Biologicals, reference 11828-H08H) (human) (UniProt Q9P1W8); assay: Blitz (BLI); no antibody; conditions: Fc fusion
[3] = target: Recombinant hSIRPg-His (Sino Biologicals, reference 11828-H08H) (human) (UniProt Q9P1W8); assay: Blitz (BLI); SIRPg pre-incubated with Kwar23; conditions: Fc fusion
[4] = target: Recombinant hSIRPg-His (Sino Biologicals, reference 11828-H08H) (human) (UniProt Q9P1W8); assay: Blitz (BLI); SIRPg pre-incubated with SIRP29; conditions: Fc fusion

Chain of human CD47Fc (Sino Biologicals, reference 12283-H02H) (Q08722 19-139): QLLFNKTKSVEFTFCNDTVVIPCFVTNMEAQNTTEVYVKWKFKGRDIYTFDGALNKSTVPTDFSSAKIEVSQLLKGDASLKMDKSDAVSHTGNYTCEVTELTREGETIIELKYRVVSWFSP
Chain of Recombinant hSIRPg-His (Sino Biologicals, reference 11828-H08H) (human) (Q9P1W8 29-360): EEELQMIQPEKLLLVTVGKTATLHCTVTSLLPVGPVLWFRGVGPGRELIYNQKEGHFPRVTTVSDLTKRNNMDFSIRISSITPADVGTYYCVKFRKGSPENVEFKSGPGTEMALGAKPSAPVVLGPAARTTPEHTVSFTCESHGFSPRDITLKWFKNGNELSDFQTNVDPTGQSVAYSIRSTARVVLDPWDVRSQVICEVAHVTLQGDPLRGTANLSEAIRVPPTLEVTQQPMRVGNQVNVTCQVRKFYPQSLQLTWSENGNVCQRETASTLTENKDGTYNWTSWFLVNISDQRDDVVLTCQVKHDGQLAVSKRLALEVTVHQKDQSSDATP
Chain of hSIRPa-His recombinant protein (Sino Biologicals, reference 11612-H08H) (human) (P78324 31-370): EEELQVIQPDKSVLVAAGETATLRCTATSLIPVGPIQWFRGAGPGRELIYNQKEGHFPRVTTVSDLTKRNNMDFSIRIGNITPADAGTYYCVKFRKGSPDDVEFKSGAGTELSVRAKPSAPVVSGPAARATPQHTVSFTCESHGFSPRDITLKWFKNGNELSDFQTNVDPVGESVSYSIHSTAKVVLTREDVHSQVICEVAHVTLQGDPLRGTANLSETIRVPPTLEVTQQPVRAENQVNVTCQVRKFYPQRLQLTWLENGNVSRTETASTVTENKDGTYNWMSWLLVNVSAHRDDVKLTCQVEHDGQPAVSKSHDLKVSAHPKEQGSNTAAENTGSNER

| pKd [1] | pKd [2] | pKd [3] | pKd [4] | Substance |
| --- | --- | --- | --- | --- |
| 9.44 |  |  |  | Kwar23 |
|  | 6.22 | 3.54 | 5.59 | human CD47Fc (Sino Biologicals, reference 12283-H02H) (from UniProt Q08722 19-139) |
